This data set concerns the target T1, HMGA1b-His6 (Homo sapiens, S2G).
T1 chain: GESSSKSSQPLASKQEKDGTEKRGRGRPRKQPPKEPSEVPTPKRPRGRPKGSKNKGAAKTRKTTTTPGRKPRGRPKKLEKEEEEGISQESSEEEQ
As to the kind of experiment: streptavidin plate assay with nickel-HRP detection; poly(dGdC) competitor. The following applies: tags: C-terminal L-GSLNS-His6 (vector pHO2d), expressed in E. coli BL21; label: 5'-biotin on 34 nt strand. The protocol:
The detection of HMGA1b-His6 bound to DNA is carried out with horseradish peroxidase modified with nickel (Nickel-HRP), which transforms a fluorogenic substrate. In this assay the spiegelmer displaces the recombinant HMGA1b from its natural binding partner. On account of the 1:1:1 stoichiometry of spiegelmer/rHMGA1b/dsDNA AT Hook, a direct prediction can be made regarding the affinity of the spiegelmers for HMGA1b. The principle of the assay is illustrated in FIG. 5.
To carry out this test spiegelmers in various concentrations and HMGA1b-His6 (0.36 μg/ml; ca. 30 nM) in a total volume of 100 μl are incubated for 10 minutes in a tapered floor plate at room temperature while shaking. The incubation solution also contains: 25 mM Tris/HCl, pH 7.0 (Ambion, Austin, Tex., USA), 140 mM KCl (Ambion, Austin, Tex., USA), 12 mM NaCl (Ambion, Austin, Tex., USA), 0.8 mM MgCl2 (Ambion, Austin, Tex., USA), 0.25 mg/ml BSA (Roche, Mannheim, Germany), 1 mM DTT (Invitrogen, Karlsruhe, Germany), 18-20 μg/ml poly(dGdC) (Sigma, Deisenhofen, Germany)), 0.05% Tween 20 (Roche, Mannheim, Germany). […]
100 μl of the fluorogenic HRP substrate (QuantaBlue, Pierce, Bonn, Germany) are then added to each well and the fluorescence is measured after 15 mins (ex: 340/em: 405 nm).

B1: dsDNA AT hook (dsDNA)
DNA 1: TCGAAAAAAGCAAAAAAAAAAAAAAAAAACTGGC
DNA 2: GCCAGTTTTTTTTTTTTTTTTTTGCTTTTTT
On to B1, for which the binding result was “binds”.

The values are drawn from patent US20090192100, “NOVEL USE OF SPIEGELMERS” (published 2009).
